B1: FNR (SynPcc7942_0978) (Synechococcus elongatus PCC 7942 = FACHB-805) (protein)
chain: MLNASVAGGAATTTYGNRLFIYEVIGLRQAEGEPSDSSIRRSGSTFFKVPYSRMNQEMQRILRLGGKIVSIRPAEEAAANNGAAPLQAAAEEPAAAPTPAPAAKKHSAEDVPVNIYRPNKPFVGKVLSNEPLVQEGGIGVVQHLTFDISEGDLRYIEGQSIGIIPDGTDDKGKPHKLRLYSIASTRHGDHVDDKTVSLCVRQLQYQNEAGETINGVCSTFLCGLKPGDDVKITGPVGKEMLLPADTDANVIMMGTGTGIAPFRAYLWRMFKDNERAINSEYQFNGKAWLIFGIPTTANILYKEELEALQAQYPDNFRLTYAISREQKNEAGGRMYIQDRVAEHADEIWNLLKDEKTHVYICGLRGMEDGIDQAMTVAAAKEDVVWSDYQRTLKKAGRWHVETY
B2: ADO 1593 (Synechococcus elongatus PCC 7942 = FACHB-805) (protein)
chain: MPQLEASLELDFQSESYKDAYSRINAIVIEGEQEAFDNYNRLAEMLPDQRDELHKLAKMEQRHMKGFMACGKNLSVTPDMGFAQKFFERLHENFKAAAAEGKVVTCLLIQSLIIECFAIAAYNIYIPVADAFARKITEGVVRDEYLHRNFGEEWLKANFDASKAELEEANRQNLPLVWLMLNEVADDARELGMERESLVEDFMIAYGEALENIGFTTREIMRMSAYGLAAV
notes: apo-ADO reconstituted with ferrous iron

How the values were obtained:
purified protein = substrate: NC(=O)C1=CN([C@@H]2O[C@H](COP(=O)(O)OP(=O)(O)OC[C@H]3O[C@@H](n4cnc5c(N)ncnc54)[C@H](OP(=O)(O)O)[C@@H]3O)[C@@H](O)[C@H]2O)C=CC1; experiment: purified protein; type: biochemical, Synechococcus elongatus; conditions: 0.7 mM potassium ferricyanide, 50 mM Tris-HCl pH 8.0, 25°C
[1] = substrate: CCCCCCC=O; experiment: GC headspace assay of n-hexane formation; type: biochemical, Synechococcus elongatus; conditions: chemical reductants PMS/NADH, ferrous ammonium sulfate, HEPES pH 7.2, 100 mM KCl, 10% glycerol, 4% DMSO, 37°C (conditions of the kcat assay)

Row | Protein | Km (purified protein) | kcat (purified protein) | kcat/Km (purified protein) | Km [1] | kcat [1]
1 | B1 | 92.5 ± 7.6 µM | 227 ± 7 s⁻¹ | 2.5e+06 ± 300000 M⁻¹ s⁻¹ | – | –
2 | B2 | – | – | – | 224 ± 40 µM | 0.002 ± 0.00033 s⁻¹

From PMC3691600, “Conversion of fatty aldehydes into alk (a/e)nes by in vitro reconstituted cyanobacterial aldehyde-deformylating oxygenase with the cognate electron transfer system” (Biotechnology for Biofuels, 2013)
